Consider five molecules from patent US20220098305A1 (Hoffmann-La Roche, published 2022).

Test [1] concerns the target T1, cynomolgus ICOS (cynomolgus, UniProt Q9Y6W8 21-195 (human entry)).
T1 chain: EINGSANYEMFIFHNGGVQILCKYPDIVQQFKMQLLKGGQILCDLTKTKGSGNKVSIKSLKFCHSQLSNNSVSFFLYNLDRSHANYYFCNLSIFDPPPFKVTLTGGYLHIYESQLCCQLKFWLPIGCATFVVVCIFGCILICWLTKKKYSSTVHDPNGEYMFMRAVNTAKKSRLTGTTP
The test can be described thus: flow cytometry, activated cynomolgus PBMCs, CD8+ subset. The method, then:
(§1) Briefly, suspension cells were harvested, counted, checked for viability and re-suspended at 1 million cells per ml in FACS buffer (PBS with 0.1% BSA). […] The staining was fixed for 20 min at 4° C. in the dark, using 75 μl of 1% PFA in FACS buffer per well.
(§2) Briefly, cynomolgus PBMCs were activated for 48 hours using Dynabeads™ Human T-Activator CD3/CD28 (Thermo Fischer #11131D) according to manufacturer instruction and stored in RPMI1640 medium containing 10% FCS and 1% Glutamax (Gibco 35050061) at 37° C., in a humidified incubator until subsequent binding experiment was performed, as described above.

Test [2] concerns the target T2, human ICOS (human, UniProt Q9Y6W8 21-199).
T2 construct: The cell that carries it is named under assay; also called huICOS; CD278
T2 sequence: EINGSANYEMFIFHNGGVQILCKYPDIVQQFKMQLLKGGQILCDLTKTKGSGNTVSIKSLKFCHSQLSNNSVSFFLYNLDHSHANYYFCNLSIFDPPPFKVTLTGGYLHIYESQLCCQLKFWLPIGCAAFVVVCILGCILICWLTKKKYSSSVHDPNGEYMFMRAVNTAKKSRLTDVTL
The test can be described thus: flow cytometry, CHO cells expressing human ICOS. The method, then:
as §1
(§3) Fluorescence was analyzed by FACS using a FACS Fortessa (Software FACS Diva). Binding curves and EC₅₀ values were obtained using GraphPadPrism 7.
In general terms: A flow cytometer gives signals particle by particle.

Test [3] deals with T3, human FAP (human, UniProt Q12884 1-760).
T3 construct: also called hu FAP
The test can be described thus: flow cytometry, NIH/3T3-huFAP clone 19 cells. On the procedure: as §1, §3

Test [4] has as its target T1, cynomolgus ICOS. The test can be described thus: flow cytometry, activated cynomolgus PBMCs, CD4+ subset. The method, then:
as §1, §2

Test [5] concerns the target T3, human FAP. The test can be described thus: flow cytometry, NIH/3T3-huFAP clone 19 cells. This is another data set of the same source.
Test [6] addresses T2, human ICOS. The test can be described thus: flow cytometry, SR cells.
In test [7] the target is T2, human ICOS. The test can be described thus: flow cytometry on SR cells expressing human ICOS, geometric MFI.
Test [8] concerns the target T2, human ICOS. The test can be described thus: cell-based or functional assay.
The target of test [9] is T2, human ICOS. The test can be described thus: flow cytometry, CHO cells expressing human ICOS. This is another data set of the same source.
In test [10] the target is T2, human ICOS. The test can be described thus: flow cytometry on CHO cells expressing human ICOS, PE-labelled secondary antibody; y axis printed LOG10(MFI PE).

Where two headings read alike, the source gives them in different places.

B1: Molecule 19, bispecific 2+1 anti-ICOS (1138)/anti-FAP (4B9) huIgG1 P329GLALA kih (bispecific antibody)
heavy 1: QSLEESGGDLVKPGASLTLTCTASGFDLSSYYYMSWVRQAPGKGLEWIASIYADIYGGTTHYASWAKGRFTISKTSSTTVTLQMTSLTAADTATYFCAREDGSRYGGSGYYNLWGPGTLVTVSSASTKGPSVFPLAPSSKSTSGGTAALGCLVKDYFPEPVTVSWNSGALTSGVHTFPAVLQSSGLYSLSSVVTVPSSSLGTQTYICNVNHKPSNTKVDKKVEPKSCDKTHTCPPCPAPEAAGGPSVFLFPPKPKDTLMISRTPEVTCVVVDVSHEDPEVKFNWYVDGVEVHNAKTKPREEQYNSTYRVVSVLTVLHQDWLNGKEYKCKVSNKALGAPIEKTISKAKGQPREPQVCTLPPSRDELTKNQVSLSCAVKGFYPSDIAVEWESNGQPENNYKTTPPVLDSDGSFFLVSKLTVDKSRWQQGNVFSCSVMHEALHNHYTQKSLSLSPGGGGGSGGGGSGGGGSGGGGSEIVLTQSPGTLSLSPGERATLSCRASQSVTSSYLAWYQQKPGQAPRLLINVGSRRATGIPDRFSGSGSGTDFTLTISRLEPEDFAVYYCQQGIMLPPTFGQGTKVEIK
heavy 2: not shown
light: ALVMTQTPSSVSAAVGGTVTINCQASQNIYSNLAWYQQKPGQPPKLLIYAASYLTSGVSSRFKGSGAGTQFTLTISGVESADAATYYCQQGHTTDNIDNAFGGGTEVVVKRTVAAPSVFIFPPSDEQLKSGTASVVCLLNNFYPREAKVQWKVDNALQSGNSQESVTEQDSKDSTYSLSSTLTLSKADYEKHKVYACEVTHQGLSSPVTKSFNRGEC
For orientation: EC50 means the concentration giving half of the maximal effect. Low values mean greater potency, high ones weaker potency. In the case of B1, the EC50 in the test with cynomolgus ICOS [1] turned out to be 14 nM; in the test with human ICOS [2], 5.44 nM; with human FAP [3], 6.16 nM; with cynomolgus ICOS [4], 13.5 nM.

B2: Molecule 22, bispecific 2+1 anti-ICOS (1143v2)/anti-FAP (4B9) huIgG1 P329GLALA kih (bispecific antibody)
heavy 1: QSLEESGGDLVKPGASLTLTCKASGFDFSSAYDMSWVRQAPGKGLEWIGVIYYGDGITYYATSVKGRFTISKTSSTTVPLQMTSLTAADTATYFCARGAFLGSSYYLSLWGQGTLVTVSSASTKGPSVFPLAPSSKSTSGGTAALGCLVKDYFPEPVTVSWNSGALTSGVHTFPAVLQSSGLYSLSSVVTVPSSSLGTQTYICNVNHKPSNTKVDKKVEPKSCDKTHTCPPCPAPEAAGGPSVFLFPPKPKDTLMISRTPEVTCVVVDVSHEDPEVKFNWYVDGVEVHNAKTKPREEQYNSTYRVVSVLTVLHQDWLNGKEYKCKVSNKALGAPIEKTISKAKGQPREPQVCTLPPSRDELTKNQVSLSCAVKGFYPSDIAVEWESNGQPENNYKTTPPVLDSDGSFFLVSKLTVDKSRWQQGNVFSCSVMHEALHNHYTQKSLSLSPGGGGGSGGGGSGGGGSGGGGSEIVLTQSPGTLSLSPGERATLSCRASQSVTSSYLAWYQQKPGQAPRLLINVGSRRATGIPDRFSGSGSGTDFTLTISRLEPEDFAVYYCQQGIMLPPTFGQGTKVEIK
heavy 2: not shown
light: AIDMTQTPASVEAAVGGTVTINCQASENIYNWLAWYQQKPGQPPKLLIYDASKLASGVPSRFSASGSGTQFTLTISAVESADAATYYCQQAYTYGNIDNAFGGGTEVVVSRTVAAPSVFIFPPSDEQLKSGTASVVCLLNNFYPREAKVQWKVDNALQSGNSQESVTEQDSKDSTYSLSSTLTLSKADYEKHKVYACEVTHQGLSSPVTKSFNRGEC
Usually EC50 (read off the curve) stands for the concentration at which the effect is half-maximal. Regarding B2, the EC50 with human FAP [5] is 0.00324 nM; in the test with cynomolgus ICOS [1], 8.34 nM; with human ICOS [6], 0.00117 nM; with human ICOS [2], 2.19 nM; in the test with human FAP [3] it was 4.68 nM; with cynomolgus ICOS [4] it was 6.53 nM. Also, the “EC50 (read off the curve)” value with human ICOS [7] is approximately 1 nM.

B3: Molecule 33 (ICOS H1138_1) (antibody, human IgG1, kappa, L234A L235A, V domains shown)
VH: EVQLLESGGGLVQPGGSLRLSCAASGFDLSSYYYMSWVRQAPGKGLEWVSSIYADIYGGTTHYASWAKGRFTISKTSSKTTLYLQMNSLRAEDTAVYFCAREDGSRYGGSGYYNLWGQGTLVTVSS
VL: DIQMTQSPSSLSASVGDRVTITCRASQNIYSNLAWYQQKPGQPPKLLIYAASYLTSGVPSRFSGSGSGTDFTLTISSLQPEDFATYYCQQGHTTDNIDNAFGGGTKVEIKR
notes: Human IgG format
Take B3: in the test with human ICOS [8], the “EC50 of activation of Jurkat-NFAT reporter cell line” value turned out to be 41.4 nM and the “Max (Counts/sec), Jurkat-NFAT reporter cell line” value (“Max (Counts/sec)” for short) amounted to 41400 Counts/sec. Further, in the test with human ICOS [9], the EC50 was 7.58 nM and the “Max (Log10(MFI))” value is 3.89 Log10(MFI). In addition, the “EC50 (read off the curve)” value in the test with human ICOS [10] was approximately 8 nM.

B4: Molecule 35 (ICOS H1138_3) (antibody, human IgG1, kappa, L234A L235A, V domains shown)
VH: EVQLLESGGGLVQPGGSLRLSCAASGFDLSSYYYMSWVRQAPGKGLEWVSSIYADIYGGTTHYASWAKGRFTISKTSSTTLYLQMNSLRAEDTAVYFCAREDGSRYGGSGYYNLWGQGTLVTVSS
VL: AIQMTQSPSSLSASVGDRVTITCRASQNIYSNLAWYQQKPGKPPKLLIYAASYLTSGVSSRFSGSGSGTDFTLTISSLQPEDFATYYCQQGHTTDNIDNAFGGGTKVEIKR
notes: Human IgG format
In the case of B4, in the test with human ICOS [8], the “EC50 of activation of Jurkat-NFAT reporter cell line” value was 99.4 nM and the “Max (Counts/sec)” value amounted to 59500 Counts/sec. In the test with human ICOS [9], the concentration giving a half-maximal response (EC50) was 2.72 nM and the “Max (Log10(MFI))” value is 4.55 Log10(MFI). For the same molecule, the “EC50 (read off the curve)” value in the test with human ICOS [10] was approximately 3 nM.

B5: Molecule 34 (ICOS H1138_2) (antibody, human IgG1, kappa, L234A L235A, V domains shown)
VH: EVQLLESGGGLVQPGGSLRLSCAASGFDLSSYYYMSWVRQAPGKGLEWVSSIYADIYGGTTHYASWAKGRFTISRDNSKNTLYLQMNSLRAEDTAVYFCAREDGSRYGGSGYYNLWGQGTLVTVSS
VL: AIQMTQSPSSLSASVGDRVTITCRASQNIYSNLAWYQQKPGKPPKLLIYAASYLTSGVSSRFSGSGSGTDFTLTISSLQPEDFATYYCQQGHTTDNIDNAFGGGTKVEIKR
notes: Human IgG format
For the molecule B5, in the test with human ICOS [8], the “EC50 of activation of Jurkat-NFAT reporter cell line” value is 34 nM and the “Max (Counts/sec)” value was 38400 Counts/sec. Moreover, in the test with human ICOS [9], the EC50 is 10.2 nM and the “Max (Log10(MFI))” value is 1.91 Log10(MFI). Moreover, in the test with human ICOS [10], the “EC50 (read off the curve)” value was approximately 10 nM.
